Patent publication US20260241035A1, “FUNCTIONAL NUCLEIC ACID MOLECULE AND METHOD” (THE UNIVERSITY COURT OF THE UNIVERSITY OF EDINBURGH, priority 2022, published 2026)

Tests used:
Format in all cases: cell-based, human
in vitro = conditions: human; ganciclovir alone, GSC7; read-out: viability (MTT)
Protocol: (§5) On the day of cell seeding, cells were detached using above described method. Cells were counted using hemocytometer and seeded into either 96-(1,000 cells per well in 50 μL), 24-(30,000 cells per well in 500 μL) or 6-well (60,000 cells per well in 2 mL) Corning plate and placed into incubator at 37° C./5% CO2. The next day, AAV virus stocks were thawed at room temperature and an appropriate amount of virus stock was added to required amount of culture media to achieve final multiplicity of infection (MOI) of 5×10^5. Culture media containing viral particles was added to cells without replacement of existing media. Cells were returned to 37° C./5% CO2.
(§6) Lyophilised GCV was diluted in DMSO to achieve 100 mM stock concentration. GCV stocks were aliquoted and were stored at −20° C. for no longer than 1 month. […]
(§7) To track cell proliferation and morphological changes during treatments, cells were monitored using the Incucyte live-cell imaging system. […]
(§8) On the day of assay culture media was replaced with 0.3 mg/mL MTT solution (diluted in cell line-appropriate culture media). […] Before reading the plate, each well was visually inspected to make sure that all (formazan) crystals were dissolved. Plate was read with plate reader at 560 nm absorbance.

GSC7 cells [1] = assay: in vitro; conditions: ganciclovir alone, no virus
Protocol: as §5, §6, §7, §8

GSC328 cells = assay: Flow cytometry of mNGreen reporter in GSC328
Protocol: (§1) Cells were seeded at the required density. The following day the transfection was carried out. For this the Plus reagent and Lipofectamine LTX (Life Technologies, 15338030) were each diluted in half the volume of Opti-MEM I Reduced-Serum Medium (further referred to as Optimem) (Life Technologies, 31985062). Following this step, the Plus reagent/Optimem premix was added to all DNA samples followed by the Lipofectamine LTX/Optimem premix. The transfection mix was incubated for 5 min at room temperature and then carefully dropped on the cells. Generally, no media change was carried out. Cells were analysed two days following transfection.
(§2) For flow cytometry, cells were detached, pelleted and resuspended in an appropriate volume of flow cytometry buffer (1% BSA in PBS, v/v). Cells were stained with Draq7 (Abcam, ab109202, f.c. 0.1 μM) as a live/dead stain and analysed using the BD LSRFortessa cell analyser (4 lasers, BD Bioscience). Analysis of flow cytometry data was carried out in the FlowJo Analysis software (FlowJo, version 10.6.2).

huFb170 fibroblasts = assay: AAV2 transduction: mCherry and HSV-TKv5 expression in huFb170; conditions: AAV2 HSV-TK-v5-P2A-mCherry cassette
Protocol: as §2
(§3) Cells were scraped in PBS and spun down at […] twice to remove all liquid. Cell pellets were resuspended in 70 μl of RIPA buffer (50 mM Tris-HCl pH 8.0, 150 mM NaCl, 1% NP-40, 0.5% deoxycholate, 0.1% SDS and protease inhibitor (Complete, Roche, 11697498001) and incubated for 5 min on ice. Lysates were centrifuged at 13000 rpm for 10 min at 4° C. (centrifuge 5415D, Eppendorf). And the supernatant was collected in a new tube. Protein extracts were quantified using the Pierce BCA Protein Assay Kit (Thermo Scientific, Cat: 23225) according to the manufacturer's instructions.
(§4) HEK293 cells are seeded the day before the transfection into a 6 well plates so that on the day of transfection confluence would be at 60-70%. Before HEK293 cells are transfected with PEI a media change is carried out as this media will be conditioned with virus over the for two days. […] Cells are analysed on the microscope or flow cytometry. […]

GSC7 cells [2] = assay: AAV2 transduction: mCherry (flow cytometry) and HSV-TKv5 (western blot) expression in GSC7; conditions: AAV2 HSV-TK-v5-P2A-mCherry cassette
Protocol: as §2, §3, §4

[3] = tested on: patient-derived glioblastoma cell lines (GSC7, E17, E21, E28, E31, E34); assay: SSE-7 activity (% mCherry) across patient-derived glioblastoma cell lines
Text: FIG. 7: Activity of SSE-7 in a range of GSCs. (A) Schematic of the expression cassette. (B) Experimental outline, (C) Results of % mCherry expression for individual cells across the various cell lines tested. GSC7 was the positive control cell line tested (from which the fragments were initially screened). E17, E28 (previously termed G328), E21, E31, E34 refers to the five additional patient-derived glioblastoma cell lines.
The experiment described in Example 8 was repeated in five patient-derived glioblastoma cell lines (E17, E21, E28, E31, E34).

GSC7 cells [4] = assay: Flow cytometry of mNGreen reporter in GSC7
Protocol: as §1, with “For this the Plus reagent and Lipofectamine LTX (Life Technologies, 15338030) were each diluted in half the volume of Opti-MEM I Reduced-Serum Medium (further referred to as Optimem) (Life Technologies, 31985062).” left out
For flow cytometry, cells were detached, pelleted and resuspended in an appropriate volume of flow cytometry buffer (1% BSA in PBS, v/v). Cells were stained with Draq7 (Abcam, ab109202, f.c. 0.1 μM) as a live/dead stain and analysed using the BD LSRFortessa cell analyser (4 lasers, BD Bioscience).

[5] = tested on: GSC patient lines E31 and E55; assay: Lentivirus SSE-7-mCherry reporter, flow cytometry in GSC patient lines
Text: FIG. 14: Exemplary SSE-7 also has good activity when deployed with lentivirus. Flow cytometry quantitation of levels of mCherry reporter in GSCs transduced with lentivirus harbouring SSE-7-mCherry reporters.

Molecule: Nc1nc(O)c2ncn(COC(CO)CO)c2n1 [ganciclovir]
- viability at 200 μM (in vitro): 89%
- cell confluence (GSC7 cells [1]): No significant negative effect on cell confluence

B1: SSE-6: synthetic super-enhancer ID3548_ID3146_ID4310_ID4428, SEQ ID NO: 69 (nucleic acid)
DNA: TCCAAACACTCCCCTGCAACAGATGTACACACAGAGCCCATTGTTTTCTCTAGAAATGTAAACTGCACGTCACAGTTACTCCATACACACCACAAACAGACTCCCTTTGTTCTCAGGATATGTGTTGACACAAGAATATGTCATCCTCTCAGCTCCAGACTGAAAGAGATGGGTGTGTGGGAGTGGGGGAAGCTGAGCTCCAGGCAGACAGCACAGAGCCGCCTTGTCCAACCCAGCCAGGTGCCATGGCAACCAACAAAGGCCCCATTGTCCCGTGTCTGCTGGGCCTTCCTGAGGCTCTGGGGTCAGAGTCCCGGTTTTGTCCTGCCTTTGAGAACACTGGAAGGGCACTGAAGGCTGACCAGCATGCACCTCACCCCACCTCCTCTCTGTCTCATCCTCAGCCATCTAAGCGGGAGACTCATCAGGCTTAAATTCTCATTCTTATCCAAGATTCTTCTGCTTCAAATGAGTCTAAATGGAGATCCTCCCATAAAGGGAGTTCTGTTTGGGCTTCCCTTGGAAGTCCATTGAAAGCGTTTCACATTTCAATGCTTCTTTACATTCTCCTCTAGAATGAATCTGGAAGGGCCATTTCATTCCAGCCCTATCAGATTTACTACTTCCTCCTGT
- mean fluorescence intensity (MFI) compared with CMV (GSC328 cells): clearly less intense than CMV

B2: SSE-7: synthetic super-enhancer ID4310_ID4428_ID0785_ID3836, SEQ ID NO: 70 (nucleic acid)
DNA: TTGTCCTGCCTTTGAGAACACTGGAAGGGCACTGAAGGCTGACCAGCATGCACCTCACCCCACCTCCTCTCTGTCTCATCCTCAGCCATCTAAGCGGGAGACTCATCAGGCTTAAATTCTCATTCTTATCCAAGATTCTTCTGCTTCAAATGAGTCTAAATGGAGATCCTCCCATAAAGGGAGTTCTGTTTGGGCTTCCCTTGGAAGTCCATTGAAAGCGTTTCACATTTCAATGCTTCTTTACATTCTCCTCTAGAATGAATCTGGAAGGGCCATTTCATTCCAGCCCTATCAGATTTACTACTTCCTCCTGTAAGAATGAACTGGGCCCAGCTGGGCATTTGCATCAAAGTGCCTCACCAGAGTTCCCAGCTGCTCTGGCAGAGTGCCCAGGCTTGCCCCAGAGCCCAAACAGAATGCTCTTTGAGATGCCTCTGGTTTTCATACCCTTCCAGGGGAGCAGTTTCCTGGCTGTGTCGTCAGATACTGTGGTTTACGCTGTTCCGGAGTCTGGAGGTCTGTGTGCCTTTGATCTCTTTCCCAACTAATTTGCACAGCTGCTGTGGAGGCCCTCATGAATGACCTCTTTCTTTCCTTTCT
- mCherry and HSV-TKv5 expression (huFb170 fibroblasts): not in fibroblasts
- mCherry and HSV-TKv5 expression (GSC7 cells [2]): driving both mCherry and HSV-TKv5 expression
- expression ([3]; E21, E31 and E34): lower frequency of expression
- expression ([3]; GSC7, E17 and E28): highly expressed and comparable to full-length CMV
- activity across cell lines ([3]; all lines tested): active in all cell lines
- expression level compared with positive control CMV, flow cytometry (GSC7 cells [4]): higher than CMV
- fluorescence intensity compared with CMV (GSC7 cells [4]): higher intensity than CMV
- mCherry reporter expression [5]: High levels of expression
